In the RNAGym collection of RNA variant scans (doi:10.1093/molbev/msab373):

B1: Azoarcus group I ribozyme (parent)
chain: GUGCCUUGCGCCGGGAAACCACGCAAGGGAUGGUGUCAAAUUCGGCGAAACCUAAGCGCCCGCCCGGGCGUAUGGCAACGCCGAGCCAAGCUUCGGCGCCUGCGCCGAUGAAGGUGUAGAGACUAGACGGCACCCACCUAAGGCAAACGCUAUGGUGAAGGCAUAGUCCAGGGAGUGGCGAAAGUCACACAAACCGG

Variants of: B1
Assay: reverse-splicing fitness (ratio to wild type); higher = more active; in vitro selection; Mg2+ level not given
Outline: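 An in vitro group I ribozyme library with randomized positions was T7-transcribed and gel-purified. In triplicate, 10 pmol RNA in EPPS pH 7.5 was reacted with 50 pmoles of a 30-nt RNA substrate for 1 h at 37 °C across several added MgCl2 levels (1–48 mM), then stopped with EDTA. Products were reverse transcribed from a substrate-complementary primer, PCR-amplified and sequenced (HiSeq 4000). Fitness is a variant's read proportion after selection over that before, normalised to wild type.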

First: GUGCCUUGCGCCGGGAAACCACGCAAGGGAUGGUGUCAAAUUCGGCGAAACCUAAGCGCCCGCCCGGGCGUAUGGCAACGCCGAGCCAAGCUUCGGCGCCUGCGCCGAUGGAGGUGUAGCGACUAGACGGCACCCACCUAAGGCGAACGGUAUGGUGAAGGCAUAGUCCAGGGAGUGGCGAAAGUCACACAAACCGG
Second: GUGCCUUGCGCCGGGAAACCACGCAAGGGAUGGUGUCAAAUUCGGCGAAACCUAAGCGCCCGCCCGGGCGUAUGGCAACGCCGAGCCAAGCUUCGGCGCCUGCGCCGAUGGAGGUGUAGCGACUAGACGGCACCCACCUAAGGCGAACGAUAUGGUGAAGGCAUAGUCAAGGGAGCGGCGAAAGUCACACAAACCGG
The reverse-splicing fitness of the first is higher: 0.0893 for the first, 0.0181 for the second.

First: GUGCCUUGCGCCGGGAAACCACGCAAGGGAUGGUGUCAAAUUCGGCGAAACCUAAGCGCCCGCCCGGGCGUAUGGCAACGCCGAGCCAAGCUUCGGCGCCUGCGCCGAUGGAGGUGUAGCGACUAGACGGCACCCACCUAAGGCGAACGAUAUGGUGAAGGCAUAGUCAAGGGAGAGGCGAAAGUCACACAAACCGG
Second: GUGCCUUGCGCCGGGAAACCACGCAAGGGAUGGUGUCAAAUUCGGCGAAACCUAAGCGCCCGCCCGGGCGUAUGGCAACGCCGAGCCAAGCUUCGGCGCCUGCGCCGAUGGAGGUGUAGCGACUAGACGGCACCCACCUAAGGCGAACGAUAUGGUGAAGGCAUAGUCAAGGGAGGGGCGAAAGUCACACAAACCGG
The reverse-splicing fitness of the first is higher: 0.0185 for the first, 0.00507 for the second.

First: GUGCCUUGCGCCGGGAAACCACGCAAGGGAUGGUGUCAAAUUCGGCGAAACCUAAGCGCCCGCCCGGGCGUAUGGCAACGCCGAGCCAAGCUUCGGCGCCUGCGCCGAUGGAGGUGUAGCGACUAGACGGCACCCACCUAAGGCGAACGAUAUGGUGAAGGCAUAGUCCAGGGAGGGGCGAAAGUCACACAAACCGG
Second: GUGCCUUGCGCCGGGAAACCACGCAAGGGAUGGUGUCAAAUUCGGCGAAACCUAAGCGCCCGCCCGGGCGUAUGGCAACGCCGAGCCAAGCUUCGGCGCCUGCGCCGAUGGAGGUGUAGCGACUAGACGGCACCCACCUAAGGCGAACGAUAUGGUGAAGGCAUAGUCCAGGGAGAGGCGAAAGUCACACAAACCGG
The reverse-splicing fitness of the first is lower: 0.0203 for the first, 0.0804 for the second.

Compared with GUGCCUUGCGCCGGGAAACCACGCAAGGGAUGGUGUCAAAUUCGGCGAAACCUAAGCGCCCGCCCGGGCGUAUGGCAACGCCGAGCCAAGCUUCGGCGCCUGCGCCGAUGGAGGUGUAGCGACUAGACGGCACCCACCUAAGGCGAACGAUAUGGUGAAGGCAUAGUCCAGGGAGCGGCGAAAGUCACACAAACCGG, GUGCCUUGCGCCGGGAAACCACGCAAGGGAUGGUGUCAAAUUCGGCGAAACCUAAGCGCCCGCCCGGGCGUAUGGCAACGCCGAGCCAAGCUUCGGCGCCUGCGCCGAUGGAGGUGUAGCGACUAGACGGCACCCACCUAAGGCGAACGGUAUGGUGAAGGCAUAGUCGAGGGAGAGGCGAAAGUCACACAAACCGG is lower in reverse-splicing fitness: 0.0998 for the first, 0.00741 for the second.

First: GUGCCUUGCGCCGGGAAACCACGCAAGGGAUGGUGUCAAAUUCGGCGAAACCUAAGCGCCCGCCCGGGCGUAUGGCAACGCCGAGCCAAGCUUCGGCGCCUGCGCCGAUGGAGGUGUAGCGACUAGACGGCACCCACCUAAGGCGAACGGUAUGGUGAAGGCAUAGUCGAGGGAGGGGCGAAAGUCACACAAACCGG
Second: GUGCCUUGCGCCGGGAAACCACGCAAGGGAUGGUGUCAAAUUCGGCGAAACCUAAGCGCCCGCCCGGGCGUAUGGCAACGCCGAGCCAAGCUUCGGCGCCUGCGCCGAUGGAGGUGUAGCGACUAGACGGCACCCACCUAAGGCGAACGGUAUGGUGAAGGCAUAGUCGAGGGAGCGGCGAAAGUCACACAAACCGG
The reverse-splicing fitness of the first is lower: 0.00503 for the first, 0.00529 for the second.

First: GUGCCUUGCGCCGGGAAACCACGCAAGGGAUGGUGUCAAAUUCGGCGAAACCUAAGCGCCCGCCCGGGCGUAUGGCAACGCCGAGCCAAGCUUCGGCGCCUGCGCCGAUGGAGGUGUAGCGACUAGACGGCACCCACCUAAGGCGAACGAUAUGGUGAAGGCAUAGUCUAGGGAGAGGCGAAAGUCACACAAACCGG
Second: GUGCCUUGCGCCGGGAAACCACGCAAGGGAUGGUGUCAAAUUCGGCGAAACCUAAGCGCCCGCCCGGGCGUAUGGCAACGCCGAGCCAAGCUUCGGCGCCUGCGCCGAUGGAGGUGUAGCGACUAGACGGCACCCACCUAAGGCGAACGAUAUGGUGAAGGCAUAGUCUAGGGAGGGGCGAAAGUCACACAAACCGG
The reverse-splicing fitness of the first is higher: 0.0243 for the first, 0.00549 for the second.

GUGCCUUGCGCCGGGAAACCACGCAAGGGAUGGUGUCAAAUUCGGCGAAACCUAAGCGCCCGCCCGGGCGUAUGGCAACGCCGAGCCAAGCUUCGGCGCCUGCGCCGAUGGAGGUGUAGCGACUAGACGGCACCCACCUAAGGCGAACGAUAUGGUGAAGGCAUAGUCUAGGGAGCGGCGAAAGUCACACAAACCGG and GUGCCUUGCGCCGGGAAACCACGCAAGGGAUGGUGUCAAAUUCGGCGAAACCUAAGCGCCCGCCCGGGCGUAUGGCAACGCCGAGCCAAGCUUCGGCGCCUGCGCCGAUGGAGGUGUAGCGACUAGACGGCACCCACCUAAGGCGAACGAUAUGGUGAAGGCAUAGUCGAGGGAGAGGCGAAAGUCACACAAACCGG are the same in reverse-splicing fitness: 0.0231 for the first, 0.0231 for the second.

GUGCCUUGCGCCGGGAAACCACGCAAGGGAUGGUGUCAAAUUCGGCGAAACCUAAGCGCCCGCCCGGGCGUAUGGCAACGCCGAGCCAAGCUUCGGCGCCUGCGCCGAUGGAGGUGUAGCGACUAGACGGCACCCACCUAAGGCGAACGAUAUGGUGAAGGCAUAGUCGAGGGAGCGGCGAAAGUCACACAAACCGG showed a reverse-splicing fitness of 0.0221.
